Assay results from the DeepSol protein solubility set.

experiment: soluble on expression in E. coli; label from the status in PepcDB or PDB records

Q: Which “soluble on expression in E. coli” value does the source give for “NFMLTQPHSVSESPGKTVTISCTRSSGSIASYYVQWYQQRPGSSPTTVIYEDSQRPSGVPDRFSGSIDSSSNSASLTISGLKTEDEADYYCQSYDSSNVVFGGGTKLTVLGQPKAAPSVTLFPPSSEELQANKATLVCLISDFYPGAVTVAWKADSSPVKAGVETTTPSKQSNNKYAASSYLSLTPEQWKSHRSYSCQVTHEGSTVEKTVAPTECS” here?
A: soluble

Q: For “MAHHHHHHMRLASPFSRAAWQLQETHNLSPLLRRRACAAPVAATSPSAFCTARRCLSQQASHWLNKLRYGADDAPTMGSWDSAYEDDAMDTRKLYCKALVHASGGSRLARDWIAGCAALTSPDPSLIYTALQHAATEADVEELREHILGRLLAQESPRRGGRSGGSCDNEVRTSFGMYEESEREVVVPGTGNVAVKRAVAPNCAGQSSIHERDGKDGASEATSPPITSEGIRDAEHYLLQRSREVRCFMYDAMTASLFHSNNDLRTVEAARRHTFWIGLTQFGLSFDELTALWRLVEAELLLKKEKIKVLGQPWGE”, which “soluble on expression in E. coli” value is on record?
A: soluble

Q: For “MFIVKAFRDIIINIKFLQEGINMSDNKTAGQKLWENLSYNCPNVWNKIGNDEIKNTFAFCEEYKSFLDKSKTEREFVRETKKLAESKGFVSIDDVIDSGKPLKPGMKVYRVFKNKIVALAVIGSQPPEKGFNLVGAHIDSPRIDLKPNPIYEANEMVFLKTHYYGGIKKYQWVTIPLSMHGVIIRKDGSSVEIVIGEDENDTVFTITDLLPHLAAEQMQKKMSEGITGENLNILFGSIPYNDEKVKEKVKLNILKLLNEKYNITEEDLLSAELELVPSFKAKDVGLDKSMVGAYGQDDRVCAYTALRAVLDLDNVDKTAVCVLTDKEEIGSMGNTGAQSSFLENFIADICALSSEKYTDIILRRCLSNSKMLSADVNAAIDPTYEGVYDKLNSSFIGKGIVLLKYTGARGKSGASDAHAEFMGEVRKLFNERKIFWQTAELGKVDQGGGGTIAQFVANMGMDVIDCGVAVLSMHSPFEVTSKVDIYMAYKAYREFLKYIK”, which “soluble on expression in E. coli” value is on record?
A: soluble

Q: With “MARARKGALVQCDPSIKALILQIDAKMSDIVLEELDDTHLLVNPSKVEFVKHELNRLLSKNIYNPMDEEENQ” as the sequence, how does the “soluble on expression in E. coli” value read?
A: soluble

Q: For “MDDTLFQLKFTAKQLEKLAKKAEKDSKAEQAKVKKALQQKNVECARVYAENAIRKKNEGVNWLRMASRVDAVASKVQTAVTMKGVTKNMAQVTKALDKALSAMDLQKVSAVMDRFEQQVQNLDVHTSVMEDSVSSATTLTTPQEQVDSLIVQIAEENGLEVLDQLSQLPEGASAVGESSVRSQEDQLSRRLAALRN”, which “soluble on expression in E. coli” value is on record?
A: not soluble

Q: Which “soluble on expression in E. coli” value does the source give for “MSLRPRVLLVEDSTSLAILYKQYVKDEPYDIFHVETGRDAIQFIERSKPQLIILDLKLPDMSGEDVLDWINQNDIPTSVIIATAHGSVDLAVNLIQKGAEDFLEKPINADRLKTSVALHLKRAKLEDLVENIQSTFDRHNYHGFIGSSLPMQAVYKTIDAVAPTSASVFIVGESGTGKEVCAEAVHRQSDRRDKPFIAINCGAIPRDLMESEIFGHVKGAFTGATTDRKGAATLAHGGTLFLDELCEMELEMQKTLLRFLQTGTYTPLGGTKEMKVDVRIICATNRDPLTEVEEGRFREDLYYRVHVVPIDMPPLRERGSDIVTLAKHFLTTYAKEDKKKFSNIDTEAQHVIKHYEWPGNVRQLQNIIRNIVVLNNDEKVTVAHLPAQLTQKKTQARTVTPVHVEGHHHHHH” here?
A: soluble

Q: Which “soluble on expression in E. coli” value does the source give for “RFLSIKTSWEDYFLEDDPMIIKTEEFKSVFGNDNYAAVLTDCDNTFTKENLELIRRLSNEMLDSISYAEKITSLTDIEFMIGNEEGMAIEQIVPEEIPSDSAGLAEIRRKAFLKPYIADRLVSKDGTLTWILLKLNPFPSDSVWNKGKGAVAPEMVVGRELEHIIRKPEYAALHPKGAGMPYMTDRKMAWVNRE” here?
A: not soluble

Q: With “SMGNPQLISAGAKFRAAVAAEQPLQVVGAITAYAAKMAEAVGFKAVYLSGGGVAANSLGIPDLGISTMDDVLVDANRITNATNLPLLVDIDTGWGGAFNIARTIRSFIKAGVGAVHLEDQVGQKRCGHRPGKECVPAGEMVDRIKAAVDARTDETFVIMARTDAAAAEGIDAAIERAIAYVEAGADMIFPEAMKTLDDYRRFKEAVKVPILANLTEFGSTPLFTLDELKGANVDIALYCCGAYRAMNKAALNFYETVRRDGTQKAAVPTMQTRAQLYDYLGYYAYEEKLDQLFNQGRN” as the sequence, how does the “soluble on expression in E. coli” value read?
A: soluble

Q: With “LQKVFDNTVVQNSDIKKFNESKLIKPNLMQEHALKSLESLRNVGEEKGLIISATGTGKTILCALDVRAYSPDKFLFIVHNEGILNRAIEEFKKVFPYEDESNFGLLTGKRKDHDAKFLFATIQTLSKKENYKLFNSNHFDYIVFDEAHRIAASSYQKIFNYFKPNFLLGMTATPERTDELNIFE” as the sequence, how does the “soluble on expression in E. coli” value read?
A: not soluble

Q: For “MACLSPSQLQKFQQDGFLVLEGFLSAEECVAMQQRIGEIVAEMDVPLHCRTEFSTQEEEQLRAQGSTDYFLSSGDKIRFFFEKGVFDEKGNFLVPPEKSINKIGHALHAHDPVFKSITHSFKVQTLARSLGLQMPVVVQSMYIFKQPHFGGEVSPHQDASFLYTEPLGRVLGVWIAVEDATLENGCLWFIPGSHTSGVSRRMVRAPVGSAPGTSFLGSEPARDNSLFVPTPVQRGALVLIHGEVVHKSKQNLSDRSRQAYTFHLMEASGTTWSPENWLQPTAELPFPQLYT”, which “soluble on expression in E. coli” value is on record?
A: soluble

Q: Which “soluble on expression in E. coli” value does the source give for “MGSDKIHHHHHHMTQNTTLRIGSGSGWWGDRVEPAERSARLGKLDYLCFETMAEATVSAAQVRKRRDPAFGGYDTYLDDRMRAVLPHCIAHGTRIISNQGWIHPLGAARRVAELCKELGLPDVKIAAVTTTDLTSSICELDLTLLESGEHVSTLRETLISAEPYEGVGPIVEALRAGAQIVVTGRVADPSLFLAPMIHHFGWQADDVARLARGSAIGHLLECGAQVTGGYFGDPGYKDVPEPWNLAFPIAEVEADGSAVISKVAGSGGRIDLQTVKEQMFYEVHDPRRYITPDVIVDFSTAVLEQVAPDRVRISGVSGLPRTDTLKVSLGCTEGHIGEDMFFYAGPGCLEKAKLAKRILEERFAMAALRADELRIDFLGVNAVHGAASPEPACEPNEIAVRVAARTRTREEAAKVGREIDSMAVCGLASTGKRVPHQDRTREIIGVWSALVPRALIRSQVQFV” here?
A: not soluble

Q: With “MYLKRPIWSDGASATPENPSESETGEESDAASMVVEELVTSLNTQRLYRELTLSLRTGLRDACAEFSFLRIRGLRSLLKTLRTVADSDSIIRLFSHTQTISDLQLVPVLFQHSLKEAEDDKVTSLDHIFSVEPMKITSPSTDAEVAVALRVLEGCCLLHPQSTVLAHKHGAVRVMMNVLSTRGVLEQGACLDALISVLLDSSANQVDFGACNGIEEVAMLMRDKQADENLSIYTIKIAVNEDSFPFCLFWLRCGEFLLLLVGHVNGKDRSPIASVNEDIRRLLGEKSASLIWAASQFGSTGDPEQRITALHIQAGRVLESLDLY” as the sequence, how does the “soluble on expression in E. coli” value read?
A: soluble

Q: Which “soluble on expression in E. coli” value does the source give for “MAHHHHHHMGDKVEYGTSTVKSLGDTCRLVRALQGSTDPRLVSINSLLEGVVKSAQSLVKGTDSQKRFNMEFAEFCGVALMGLPDLEDAVDDLRVQENCANAAVNDQDDFDGISPAIFMREIIGYVVSRNTNVGAQYLEHIGRSAMAKFAGQESSEVTPKRLKSGMNDERHVQSVARKKQRTRPVAGKMGRAPTDDKSGVAATGRVFGVDGDEPKQRYKQSMPKGPPMLSRWVKPWTLLNQRVQGIILEHASNENTRRPPVCNYPPGKRSNITPFDICTAPSGPEMLNLWHARESMTSSSVGHCDPVGVAFDETALDHDSKGSEPSFFPSGDKKVCAFVSSELMANLVRYGVSSLEAPFKGAK” here?
A: not soluble

Q: Which “soluble on expression in E. coli” value does the source give for “MSLFIISQVFSPEGQRVLTMQFTKWFIALPLAVTALSGCSLLERLVYRIDINQGNYVDQQSVDQLKFGMSKDQVRFVLGSPMLVENGYPDTWYYIYHHTQGHNDPVQKNLIVKFNDGGKLVNVAGDFPAGDSFFEGVNEGHHHHHH” here?
A: soluble

Q: With “MGSDKIHHHHHHMRDIHILHDLIKKQCPQIHQKRLNSLMVATESLLDGNQLSLTQLGRNITGSVAAKHNIKRIDRLLGNYHLAQDKITIYQWHARYLCGANPMPIILVDWSDVREQLRIMTLRASISVQGRSVTLYERTFLFEDYNAPRSHNAFLAELANVLPQGCCPLIVTDAGYRNTWFREVERYGWFWLGRVRGDVSFMHHGQTTWHSNKSLYSKANSTAKYIGNVQLARKSPLSCHLHLF” as the sequence, how does the “soluble on expression in E. coli” value read?
A: not soluble

Q: With “MSLNAQLNDLGPIKAVIFDMDGLLLDTEGIYTEITQLIAERYGRTYDWTIKQNIIGRGAGDLARYVVQALDLPISAEEFLVMREPLMRERFPRAQAMPGAQELVRHLKEHRIPIAVGTSSSQMSFGEKTTRHGDWFALFDTIVTADDPEVTAAKPAPDIFLTAARRLGVAPAECLVFEDSPFGVTAARAAGMSVIAVPDPAMADSKFAHAHGIIRSLKGFQPAACGLPHLHWDEGHHHHHH” as the sequence, how does the “soluble on expression in E. coli” value read?
A: soluble

Q: For “MGSDKIHHHHHHMSPMTIPSEMKALLLVGDGYTKTPSGSALEAMEPYLEQGRIAVPAPGPSQVLIKVNLASINPSDVAFIKGQYGQPRVKGRPAGFEGVGTIVAGGDEPYAKSLVGKRVAFATGLSNWGSWAEYAVAEAAACIPLLDTVRDEDGAAMIVNPLTAIAMFDIVKQEGEKAFVMTAGASQLCKLIIGLAKEEGFRPIVTVRRDEQIALLKDIGAAHVLNEKAPDFEATLREVMKAEQPRIFLDAVTGPLASAIFNAMPKRARWIIYGRLDPDATVIREPGQLIFQHKHIEGFWLSEWMRQFKERRGPAILEAQKRFSDGRWSTDVTAVVPLAEAIAWVPAELTKPNGKVFIRP”, which “soluble on expression in E. coli” value is on record?
A: not soluble

Q: Which “soluble on expression in E. coli” value does the source give for “MGNKIHPIGFRLGITRDWESRWYAGKKQYRHLLLEDQRIRGLLEKELYSAGLARVDIERAADNVAVTVHVAKPGVVIGRGGERIRVLREELAKLTGKNVALNVQEVQNPNLSAPLVAQRVAEQIERRFAVRRAIKQAVQRVMESGAKGAKVIVSGRIGGAEQARTEWAAQGRVPLHTLRANIDYGFALARTTYGVLGVKAYIFLGEVIGGQKPKARPELPKAEERPRRRRPAVRVKKEE” here?
A: soluble

Q: Which “soluble on expression in E. coli” value does the source give for “NTEEKFVRAEEKAKRSKMLIDMKSEQYNMITEKIEKTRKSRHDIHHHINVVYQLAKENKIEQLIEYLEEYNKIYSTKEPMVYCNNSTVDAILNHYILLAKDNGIEVHLNVALPEELKIRDTDLCIVIGNLLENAIEASEKEENKRIKLRINRSNEYICMLVSNLYNGEIKKGHSGYYSRKREFKDTGIGLSSVSAVVEKYDGRMEVDHTNGEFNVFIMMANISSNLT” here?
A: not soluble

Q: Which “soluble on expression in E. coli” value does the source give for “MTDNSKIRVVVGMSGGVDSSVTALLLKEQGYDVIGVFMKNWDDTDEFGVCTATEDYKDVAAVADKIGIPYYSVNFEKEYWDRVFEYFLAEYRAGRTPNPDVMCNKEIKFKAFLDYAMTLGADYVATGHYAQVKRDENGTVHMLRGADNGKDQTYFLSQLSQEQLQKTLFPLGHLQKSEVREIAERAGLATAKKKDSTGICFIGEKNFKQFLSQYLPAQKGRMMTIDGRDMGEHAGLMYYTIGQRGGLGIGGQHGGDNQPWFVVGKDLSQNILYVGQGFYHEALMSNSLDASVIHFTREMPEEFTFECTAKFRYRQPDSHVAVHVRGDKAEVVFAEPQRAITPGQAVVFYDGKECLGGGMIDMAYKNGQPCQYI” here?
A: not soluble

Q: With “MGSDKIHHHHHHLPQLLSAMRGPGTRSPDMPYARKTLAQIRSDAMADIAAALQGSDPLLRFAALKIIGVVLAGMTNEEYGYLDWIAKQTNPFTADDEYLEAWGALKKVYRKDASAASLSATFTGVAGKLLDDGTPVVRSDGATYTTSGTQTVVGTSVTVTIVADVAGAAGNADPGTVVALDIAVDGIQSTGAVIGTVSSGADIEDQEDYRARVLAKYQQPPQGGAAPDYVEWATDVAGVTRAWCAPNGFGAGTVVVYVMLDDAQAAHGGFPQGTDGVSQHDQGPGGLPRGTVATGDQLVVADAIVTLQPGTALVWICSPVENVLSFELTGSAGWSTAIRNAVKAQISDVFFRNGDPRGGTIDRSDINSAIAAVPGTAGFVITSITGVISGTPTTYPANITGSFGSLPVLGEVTFG” as the sequence, how does the “soluble on expression in E. coli” value read?
A: not soluble
